In the domain aggregation screens of Martell et al. (2025):

Test: soluble fraction after stress (log2 fold change); higher = more stays soluble; pooled small domains, quantitative proteomics
Conditions: stress: 50 degC
How it was run: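 Quantitative proteomics served as the high-throughput read-out for pooled custom libraries of small protein domains. Each was stressed at 50°C. Aggregation propensity is expressed as the base-two log fold change in soluble protein after stress. A higher value means a larger share of the protein remains in solution.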
In the case of “HMLTAHEAILKELRKMLLTGVLSPGEAVRPEIIGESFGVSAVPVREALRILEGEGQVLNRPHKGYVVT”, the “soluble fraction (log2)” value is reported as -0.568.
With “HMAQLKYEQIKSYLQAEAVKPESATRMPTVRELMRRFNVSLVTVNRALSELEHAKVIVRRQGAGIVAAQ” the “soluble fraction (log2)” value was -0.703.
With “HMKEMTAKQIDMFSDKLSKLESFQSHYIADAGVSVTEYKQAIAAKLQDQFYVEAWGKYLADVGFT” the “soluble fraction (log2)” value was -0.505.
With “HMSDLFKYSPYKTLTEEQYKITYQIIERLKTDLSNGIPRISIIDGGAGTGKSILGIFLLKLLVDAQN” the “soluble fraction (log2)” value was 0.343.
In the case of “HMSDEINYVIQINGKNRAEAEFGANLDKESIENLALEHERIKELLNGLTVRKIIVVPKKLVNIVA”, the “soluble fraction (log2)” value is reported as -0.312.
For “HMGVAFAPVEKIKHTKTGNELYAVKLAGRVEAEVFGQLRQKAKEYDGYYSKFSRAFLFSTPEDAEAFRAE”, the “soluble fraction (log2)” value was 0.0208.
For “HMSQEAKLAMPVTDLRLSARTLNALELANIRTVRDLVSHTEEQLLELRNFGETALAEVKEKLAALGLRLGM”, the “soluble fraction (log2)” value was 0.18.
For “HMAFKDDDVQKAYDRYMDRYGELSVLYSDNGLKVDDDLFYKNNIPPNGKFTKEFFDELYELVNMEFINNY”, the “soluble fraction (log2)” value was -0.0827.
For “HMDRESFIKLGRELARSAFAHVGQKSTEKALETAADVLRLKDPNEVLARLGSAELTGRQVVQAIYPELI”, the “soluble fraction (log2)” value was -0.0704.
For “HMYLHSEFSPVTGQELHMKYDDSSTEEDPVMLVEGKDIQGNDFVKKIHLNDVDPENATPAEMTALRVHL”, the “soluble fraction (log2)” value was -0.541.
For “HMIMNDIQAKVLEIAETKDLGSITYYRLSKMLGVDHPYRVKYAIDKLIEKGLLTAKSDGSITKAI”, the “soluble fraction (log2)” value was -0.601.
For “HMVPTATVGENTSTLPVRQLPGGPVLVVLVRGDIVLPLPGHAFQNGDVWREISTVNGVIGWVPDEFLDY”, the “soluble fraction (log2)” value was -1.9.
With “HMNPLLSAYLAEVERGLQGLTAGRRRLVLRELEAHLLDEAEARGLLTEEDMRALLMEKEPPERLAQEIAQ” the “soluble fraction (log2)” value was -0.0936.
For “HMHLTRYQYKVETEQEAVGLKELSSVHDLQIKENEATFQADSDAIDEILKTLLLYGVKKLEATPPTLED”, the “soluble fraction (log2)” value was -0.0366.
With “HMGLWWTEAERELVKTTIEQLYKDTNIAEPVDSKNLRASIPALKAMRTGLSAENQARVDTLLGALQV” the “soluble fraction (log2)” value was -0.157.
With “HMSEQLVGTVGHITVGTARTASPAEAKFLDAFEQPHYLLVEPIEPKDIFQQGDKVVLVKKQHHSWLATRYI” the “soluble fraction (log2)” value was -0.267.
For “HMNENDPRVIKTRRLLLDSFVVLVRKKDFTSISVKDITDSAQVNRATFYAHFQDKYDILEYMVID”, the “soluble fraction (log2)” value was 0.112.
In the case of “HMVEFLMESTNGMYGIVKEGSSYYVQKGINESSLDYIGGMFMKDKNRFSSYSTALKRLELISGQET”, the “soluble fraction (log2)” value is reported as -0.328.
With “HMNIGEKIKKIRTQQNKSTYELADIINKNGFKISQSAISKIENGRKKIDIETLEEIAKALDIEVDLLIT” the “soluble fraction (log2)” value was -0.14.
In the case of “HMTKGFSIQDISLSKSTMTFLQQNKITDLASLLSMSKSQIEGMKGFKPKMIQEIEKNLDKVGLVLAQD”, the “soluble fraction (log2)” value is reported as 0.176.
In the case of “HMAASGTVNSGGDPLRVRADPNTSSQILTKLSDGTQVEVLEQAENGWYKIAHEGISGFVSGEYLVVH”, the “soluble fraction (log2)” value is reported as 0.133.
With “HMGYDDLEPFDANGRLRWSDQELVLAFGRHRGATLRTLELNDPSYLRWLLSGNGPLEQQDIQRLEQILES” the “soluble fraction (log2)” value was -1.26.
With “HMKSAYADVAIAKVQDYVNVRAENNEDSEVLGKLYNNSAATVLETTDDGWYKISSGSVTGYVKSEYVVVG” the “soluble fraction (log2)” value was 0.0784.
In the case of “HMRIDSFEDARRRFEYDYLTRLLKLTQGSVTQAAKLAKRNRTEFYKLLQRHGIEAAHFKPTS”, the “soluble fraction (log2)” value is reported as -0.581.
In the case of “HMQTTDTGAIETIVDELMAANPDKVEAYRGGKTGLQGFFMGQVMKQLGGQGNPKVISAIVTEKLE”, the “soluble fraction (log2)” value is reported as no less than 0.62.
For “HMAKNYYEILGLKSDATLPEIKKAFKKLSKKFHPDKNRDDDGYFESMFKSINEAYQVLIDEDKRATFDSHH”, the “soluble fraction (log2)” value was -0.59.
In the case of “HMDDFGERLRKLRVAQDLTQQQLGEKLGVVPSTIGKYEKVKDSYPSIEVLIKLSDFFSVSTDYLLKG”, the “soluble fraction (log2)” value is reported as -1.88.
For “HMKSKNILLGEYKGKEVHVGEGKYGPFILYDKKFKSIGAYLTENSLMLKDLTIEDYSKIMKFTENSNSKS”, the “soluble fraction (log2)” value was -0.651.
With “HMHMSLTEKYKELTDLAVSAGVQNLNVREQDGVLYVDGDASGAVKQQLWDTYGKLDPDYTSGDLVLNI” the “soluble fraction (log2)” value was 0.0615.
In the case of “HMGLAWTVEGRTVLLGRTADRIELYNVGGGLVALARESDRISAPGVGLYVVRVVSDGQSVSQKIWIT”, the “soluble fraction (log2)” value is reported as -0.394.
In the case of “HMGGGVSSSLAGNVFKVLLPAGSVVEQGQAVIVLEAMKMETEVNAPKSGSVSSVFVNEGDTVEVGDLLFAI”, the “soluble fraction (log2)” value is reported as -0.17.
With “HMQDYYTQSDFARYLEDKGIHFPQNKIAVYRKRGKFPKEDLVVAGTPYWSKYTVESFAKHLLEQQN” the “soluble fraction (log2)” value was 0.0719.
In the case of “HMNVTIGESIKNVINHYGTPIYSYNPNNQEKYYEFHTNKGVLVVTAIGKKNTGYVTRVSMTY”, the “soluble fraction (log2)” value is reported as -1.18.
For “HMKRLQEQAYDYLKELILSGKMIENEIYSETKLASEIGISRTPIRDALQRLSQDGFIDIIPSKGFRIH”, the “soluble fraction (log2)” value was -0.134.
For “HMYTEIDDVKDLLSKIPSVNKLTTADRGMVQAARNAYDALDEDQKLYITIADVEKFNAAVEWMEEH”, the “soluble fraction (log2)” value was 0.0056.
For “HMVKNVVIPDVSNKAPVDASNQLTDLGFEVVTEYKYIASDTIEEGKVVKTSPEIGSKRKYGQKITLYISSG”, the “soluble fraction (log2)” value was -0.56.
With “HMIGKLTSSKLAAIHKMKTNELLAHFTEKGFLNINDAGKYILTQQGKDVGAEFKTSQYGGYFLWPENIE” the “soluble fraction (log2)” value was -0.841.
In the case of “HMPPPVERAIRKLGHDLSLARRRRRISQDSMAQRMGASVSTVRRIEKGDPRIPIHFIARAMMILGDLKAL”, the “soluble fraction (log2)” value is reported as -0.0422.
With “HMAPDAPDGFVHRWIRAEMLGQEDKSNVHRRMQEGYELVRADEYPDSDLPVAEGRYAGIIGVGGLLLARF” the “soluble fraction (log2)” value was -0.14.
For “HMTDFLKTRIDTLGLSTRTLNALSEANVRTIGGIARKKQEDLLEIDGIGEKGIQEIKKMLGEYGITL”, the “soluble fraction (log2)” value was -0.126.
In the case of “HMNEMSDTITRLLDAAETGIRLRGYHAVSFRDLAEELGIKSSSVHYYFRQKEDLGLAVVERY”, the “soluble fraction (log2)” value is reported as 0.0289.
In the case of “HMQNYLEFIGNELKALTSIPSPSGYTKDVAAYLMKTLSDMGYEPQLSNKGNVFVTIGGEGNPLVLAAHVD”, the “soluble fraction (log2)” value is reported as -0.0984.
In the case of “HMIGIEALAGEIDRVRQVLTGGGGLSDVQLFSQLKALNEIKAALGASPDPRAPELVQRVDQLLEAAFRS”, the “soluble fraction (log2)” value is reported as -0.0467.
For “HMAGDVVVEVVGKVRDPQVVTLPKGSRVQDALEAAGGVKPGVNTTDQNLARLLVDGEQIRIGLSS”, the “soluble fraction (log2)” value was 0.0918.
For “HMQSVPELDQQFKIAIENNDFIKLAQLKEQGYHPSKEVMQSLSNTTPNNTIIAVQKIFGLKA”, the “soluble fraction (log2)” value was 0.231.
With “HMSVTVPDVKRMQAEDAKALLSRYRLRSEVIDSVYVDNIPRGAVVEQIPRENSSVKENRIVFLTINSN” the “soluble fraction (log2)” value was -0.363.
With “HMVTDVDELEKLIQKVLDSNSSQVDEYRQGKEKVFGFFVGAVMKLTKGQADPDVVNQLLKEKLSGRK” the “soluble fraction (log2)” value was 0.195.
For “HMKLTALWTANPKISAPIYSEPSTQSKTLGRIYQGASVKVYSFDPEWAYINSSGVVGYVLRRHLE”, the “soluble fraction (log2)” value was -0.323.
With “HMDSGFMRTTQSYTVARLAEIFRLSGEDYLAVLREYDGWYQDLTSTKDLIRKGSDVPVPEGV” the “soluble fraction (log2)” value was -1.61.
For “HMTSNIIIVPNVVGMTKEQATAALAAAGLNIKLSGVETTDTAAVAVKQKPSANTKVEEGSVVTVEFDLK”, the “soluble fraction (log2)” value was 0.0533.
